Laboratory results taken from IntAct's records for PubMed 16908849.

B1: Tumor protein 63 (Homo sapiens), Q9H3D4 (parent)
chain: MNFETSRCATLQYCPDPYIQRFVETPAHFSWKESYYRSTMSQSTQTNEFLSPEVFQHIWDFLEQPICSVQPIDLNFVDEPSEDGATNKIEISMDCIRMQDSDLSDPMWPQYTNLGLLNSMDQQIQNGSSSTSPYNTDHAQNSVTAPSPYAQPSSTFDALSPSPAIPSNTDYPGPHSFDVSFQQSSTAKSATWTYSTELKKLYCQIAKTCPIQIKVMTPPPQGAVIRAMPVYKKAEHVTEVVKRCPNHELSREFNEGQIAPPSHLIRVEGNSHAQYVEDPITGRQSVLVPYEPPQVGTEFTTVLYNFMCNSSCVGGMNRRPILIIVTLETRDGQVLGRRCFEARICACPGRDRKADEDSIRKQQVSDSTKNGDGTKRPFRQNTHGIQMTSIKKRRSPDDELLYLPVRGRETYEMLLKIKESLELMQYLPQHTIETYRQQQQQQHQHLLQKQTSIQSPSSYGNSSPPLNKMNSMNKLPSVSQLINPQQRNALTPTTIPDGMGANIPMMGTHMPMAGDMNGLSPTQALPPPLSMPSTSHCTPPPPYPTDCSIVSFLARLGCSSCLDYFTTQGLTTIYQIEHYSMDDLASLKIPEQFRHAIWKGILDHRQLHEFSSPSHLLRTPSSASTVSVGSSETRGERVIDAVRFTLRQTISFPPRDEWNDFNFDMDARRNKQQRIKEEGE

Variants of: B1
Settings: with itch_human ITCH

effect of a mutation on the interaction	Variant
disrupting interaction strength	Y543F
